Data as given in PMC3142795.

Experiments:
IFI16 HINab = IFI16 HINab (UniProt Q16666 189-761); assay: AlphaScreen
IFI16 HINa = IFI16 HINa (UniProt Q16666 189-389); assay: AlphaScreen
Sequence of IFI16 HINa (Q16666 189-389): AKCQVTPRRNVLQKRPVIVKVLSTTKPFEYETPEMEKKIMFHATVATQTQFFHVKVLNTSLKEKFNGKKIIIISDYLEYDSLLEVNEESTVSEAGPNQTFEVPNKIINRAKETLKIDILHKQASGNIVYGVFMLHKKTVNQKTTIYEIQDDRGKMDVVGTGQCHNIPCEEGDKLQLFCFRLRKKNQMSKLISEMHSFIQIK

Sequence of IFI16 HINab (Q16666 189-761): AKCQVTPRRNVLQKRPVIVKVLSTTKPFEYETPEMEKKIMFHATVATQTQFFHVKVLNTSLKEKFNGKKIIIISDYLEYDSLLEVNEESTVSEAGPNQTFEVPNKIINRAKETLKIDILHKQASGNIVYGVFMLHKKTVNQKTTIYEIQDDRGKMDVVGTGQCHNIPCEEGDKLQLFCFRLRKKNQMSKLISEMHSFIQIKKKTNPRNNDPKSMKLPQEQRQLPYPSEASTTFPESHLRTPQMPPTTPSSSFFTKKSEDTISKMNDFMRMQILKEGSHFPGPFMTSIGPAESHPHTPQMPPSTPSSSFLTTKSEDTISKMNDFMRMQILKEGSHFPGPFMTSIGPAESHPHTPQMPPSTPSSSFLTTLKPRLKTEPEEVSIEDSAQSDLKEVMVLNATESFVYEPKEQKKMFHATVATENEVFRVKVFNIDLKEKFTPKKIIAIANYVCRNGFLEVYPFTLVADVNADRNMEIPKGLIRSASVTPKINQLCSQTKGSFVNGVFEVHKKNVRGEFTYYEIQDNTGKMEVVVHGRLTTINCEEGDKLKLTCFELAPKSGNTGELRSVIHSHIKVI

B1: dsVACV 70mer (dsDNA)
DNA 1: CCATCAGAAAGAGGTTTAATATTTTTGTGAGACCATCGAAGAGAGAAAGAGATAAAACTTTTTTACGACT
DNA 2: AGTCGTAAAAAAGTTTTATCTCTTTCTCTCTTCGATGGTCTCACAAAAATATTAAACCTCTTTCTGATGG
binding result (IFI16 HINab): binds
binding result (IFI16 HINa): no binding
